{"source": "patent US20190119389A1", "about": "(POTENZA THERAPEUTICS, published 2019)", "binders": {"B1": {"name": "MAB12 (antibody, V domains shown)", "VH": "EVQLLESGGGLVQPGGSLRLSCAASGFTFSSVAMVWVRQAPGKGLEWVSAISGSGGATYYADSVEGRFTISRDNSKNTLYLQMNSLRAEDTAVYYCAKDPGYDSSRYYYSNYGMDVWGQGTTVTVSS", "VL": "DIQMTQSPSSLSASVGDRVTITCRASQSISSYLNWYQQKPGKAPKLLIYGASSLQSGVPSRFSGSGSGTDFTLTISSLQPEDFATYYCQQTYSLYTFGGGTKVEIK"}}, "key": {"[1]": {"target": "T1, monomeric mutant NRP1 b1 P317A (human, UniProt O14786 273-427, limits assumed)", "T1 construct": "Single point mutant of the human NRP1 b1 domain", "T1 chain": "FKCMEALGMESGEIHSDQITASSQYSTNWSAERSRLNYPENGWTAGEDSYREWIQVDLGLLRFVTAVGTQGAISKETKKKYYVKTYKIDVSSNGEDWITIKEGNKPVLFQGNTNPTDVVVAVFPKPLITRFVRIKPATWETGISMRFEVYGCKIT", "assay": "BLI Octet, MAB12 captured on anti-human Fc sensors, monomeric mutant NRP1 b1"}, "[2]": {"target": "T2, monomeric mutant NRP1 b1 D320A (human, UniProt O14786 273-427, limits assumed)", "T2 construct": "Single point mutant of the human NRP1 b1 domain", "T2 chain": "T1 chain with A45P, D48A", "assay": "BLI Octet, MAB12 captured on anti-human Fc sensors, monomeric mutant NRP1 b1"}, "[3]": {"target": "T3, monomeric mutant NRP1 b1 T349A (human, UniProt O14786 273-427, limits assumed)", "T3 construct": "Single point mutant of the human NRP1 b1 domain", "T3 chain": "T1 chain with A45P, T77A", "assay": "BLI Octet, MAB12 captured on anti-human Fc sensors, monomeric mutant NRP1 b1"}, "[4]": {"target": "T4, monomeric mutant NRP1 b1 K352G (human, UniProt O14786 273-427, limits assumed)", "T4 construct": "Single point mutant of the human NRP1 b1 domain", "T4 chain": "T1 chain with A45P, K80G", "assay": "BLI Octet, MAB12 captured on anti-human Fc sensors, monomeric mutant NRP1 b1"}, "[5]": {"target": "T5, monomeric mutant NRP1 b1 Y353A (human, UniProt O14786 273-427, limits assumed)", "T5 construct": "Single point mutant of the human NRP1 b1 domain", "T5 chain": "T1 chain with A45P, Y81A", "assay": "BLI Octet, MAB12 captured on anti-human Fc sensors, monomeric mutant NRP1 b1"}, "[6]": {"target": "T6, monomeric mutant NRP1 b1 Y354A (human, UniProt O14786 273-427, limits assumed)", "T6 construct": "Single point mutant of the human NRP1 b1 domain", "T6 chain": "T1 chain with A45P, Y82A", "assay": "BLI Octet, MAB12 captured on anti-human Fc sensors, monomeric mutant NRP1 b1"}, "[7]": {"target": "T7, monomeric mutant NRP1 b1 T413A (human, UniProt O14786 273-427)", "T7 chain": "T1 chain with A45P, T141A", "assay": "BLI Octet, MAB12 captured on anti-human Fc sensors, monomeric mutant NRP1 b1"}, "[8]": {"target": "T8, monomeric mutant NRP1 b1 K351N (human, UniProt O14786 273-427, limits assumed)", "T8 construct": "Single point mutant of the human NRP1 b1 domain", "T8 chain": "T1 chain with A45P, K79N", "assay": "BLI Octet, MAB12 captured on anti-human Fc sensors, monomeric mutant NRP1 b1"}, "[9]": {"target": "T9, monomeric mutant NRP1 b1 E412H (human, UniProt O14786 273-427, limits assumed)", "T9 construct": "Single point mutant of the human NRP1 b1 domain", "T9 chain": "T1 chain with A45P, E140H", "assay": "BLI Octet, MAB12 captured on anti-human Fc sensors, monomeric mutant NRP1 b1"}, "Human NRP-1 His": {"target": "T10, Human NRP-1 His (human, UniProt O14786 22-856)", "T10 construct": "Recombinant monomeric protein; Biotinylated in the MSD-SET assay; also called hNRP-1; not shown: His tag", "T10 sequence (O14786 22-856 V179A limits assumed)": "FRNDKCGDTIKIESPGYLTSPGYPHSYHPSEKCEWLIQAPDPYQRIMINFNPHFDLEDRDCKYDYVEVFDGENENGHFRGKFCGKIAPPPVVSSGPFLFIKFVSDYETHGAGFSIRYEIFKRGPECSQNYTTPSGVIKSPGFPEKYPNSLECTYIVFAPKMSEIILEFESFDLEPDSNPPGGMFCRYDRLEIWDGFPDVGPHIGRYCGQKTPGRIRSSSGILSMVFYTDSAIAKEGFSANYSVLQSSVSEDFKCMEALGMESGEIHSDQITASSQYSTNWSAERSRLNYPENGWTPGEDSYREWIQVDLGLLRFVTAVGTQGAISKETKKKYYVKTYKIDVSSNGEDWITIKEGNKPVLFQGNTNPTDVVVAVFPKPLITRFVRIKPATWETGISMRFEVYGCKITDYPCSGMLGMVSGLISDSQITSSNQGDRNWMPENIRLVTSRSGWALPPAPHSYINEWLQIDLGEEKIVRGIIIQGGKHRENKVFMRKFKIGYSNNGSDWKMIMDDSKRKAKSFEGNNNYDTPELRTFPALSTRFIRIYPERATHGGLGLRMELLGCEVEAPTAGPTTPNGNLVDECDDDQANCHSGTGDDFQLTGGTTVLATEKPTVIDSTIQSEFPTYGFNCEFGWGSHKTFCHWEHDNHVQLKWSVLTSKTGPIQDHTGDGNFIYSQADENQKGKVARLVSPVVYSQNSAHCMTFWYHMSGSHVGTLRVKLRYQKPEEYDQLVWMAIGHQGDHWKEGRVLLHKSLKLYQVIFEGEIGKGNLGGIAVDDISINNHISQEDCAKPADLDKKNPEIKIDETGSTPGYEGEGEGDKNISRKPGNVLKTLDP", "assay": "BLI ForteBio, IgG1 N297A on AHQ sensor, 100 nM monomeric antigen, 1:1 fit"}, "Cyno NRP-1 His": {"target": "T11, Cyno NRP-1 His (cynomolgus monkey, UniProt O14786 22-856 (human entry), limits assumed)", "T11 construct": "Recombinant monomeric protein; also called cynomolgus monkey NRP-1-His; cNRP-1; not shown: His tag", "T11 chain": "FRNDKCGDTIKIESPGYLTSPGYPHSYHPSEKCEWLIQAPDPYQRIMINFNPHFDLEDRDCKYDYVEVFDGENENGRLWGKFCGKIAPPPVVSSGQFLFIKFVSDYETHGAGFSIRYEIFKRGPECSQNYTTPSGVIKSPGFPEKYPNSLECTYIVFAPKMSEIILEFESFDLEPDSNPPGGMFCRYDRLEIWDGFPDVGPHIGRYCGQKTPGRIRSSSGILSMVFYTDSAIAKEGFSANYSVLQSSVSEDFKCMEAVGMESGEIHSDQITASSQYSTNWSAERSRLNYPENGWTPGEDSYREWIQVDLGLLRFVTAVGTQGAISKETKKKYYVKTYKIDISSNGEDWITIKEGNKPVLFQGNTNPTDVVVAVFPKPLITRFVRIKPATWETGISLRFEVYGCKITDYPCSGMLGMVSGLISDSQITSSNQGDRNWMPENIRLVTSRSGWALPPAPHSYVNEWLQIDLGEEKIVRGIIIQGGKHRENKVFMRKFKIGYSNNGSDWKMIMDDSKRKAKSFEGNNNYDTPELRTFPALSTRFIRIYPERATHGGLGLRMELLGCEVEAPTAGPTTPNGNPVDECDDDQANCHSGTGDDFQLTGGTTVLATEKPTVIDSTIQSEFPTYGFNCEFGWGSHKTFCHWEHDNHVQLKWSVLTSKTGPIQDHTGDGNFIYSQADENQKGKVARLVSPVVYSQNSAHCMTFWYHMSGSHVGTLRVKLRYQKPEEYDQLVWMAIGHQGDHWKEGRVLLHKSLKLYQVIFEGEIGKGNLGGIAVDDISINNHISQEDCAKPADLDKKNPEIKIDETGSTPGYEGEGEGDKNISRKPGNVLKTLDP", "assay": "BLI ForteBio, IgG1 N297A on AHQ sensor, 100 nM monomeric antigen, 1:1 fit"}, "Mouse NRP-1 His": {"target": "T12, Mouse NRP-1 His (mouse, UniProt P97333 22-856)", "T12 construct": "Recombinant monomeric protein; also called mNRP-1; not shown: His tag", "T12 sequence (P97333 22-856 limits assumed)": "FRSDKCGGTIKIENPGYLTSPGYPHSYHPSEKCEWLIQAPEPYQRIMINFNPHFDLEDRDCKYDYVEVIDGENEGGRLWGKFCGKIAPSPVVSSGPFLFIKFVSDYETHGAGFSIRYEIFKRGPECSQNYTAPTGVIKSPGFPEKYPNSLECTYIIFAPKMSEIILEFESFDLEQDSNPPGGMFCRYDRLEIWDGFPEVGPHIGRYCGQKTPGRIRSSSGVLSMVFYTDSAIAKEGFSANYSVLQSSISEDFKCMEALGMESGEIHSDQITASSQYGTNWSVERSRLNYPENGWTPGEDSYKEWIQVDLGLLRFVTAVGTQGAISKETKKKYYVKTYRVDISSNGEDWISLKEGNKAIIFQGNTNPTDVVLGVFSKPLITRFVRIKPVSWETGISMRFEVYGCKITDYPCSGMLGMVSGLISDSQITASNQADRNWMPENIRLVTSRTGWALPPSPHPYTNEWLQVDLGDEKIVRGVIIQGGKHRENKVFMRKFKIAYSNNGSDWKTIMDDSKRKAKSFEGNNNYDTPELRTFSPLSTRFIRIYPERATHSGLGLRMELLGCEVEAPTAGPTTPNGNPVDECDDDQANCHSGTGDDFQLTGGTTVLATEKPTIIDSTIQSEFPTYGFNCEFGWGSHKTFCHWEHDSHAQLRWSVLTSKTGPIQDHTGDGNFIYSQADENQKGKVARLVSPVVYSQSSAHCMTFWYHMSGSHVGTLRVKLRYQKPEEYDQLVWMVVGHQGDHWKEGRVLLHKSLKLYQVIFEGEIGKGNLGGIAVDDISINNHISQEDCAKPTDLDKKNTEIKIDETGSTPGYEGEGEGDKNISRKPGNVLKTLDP", "assay": "BLI ForteBio, IgG1 N297A on AHQ sensor, 100 nM monomeric antigen, 1:1 fit"}, "recombinant human NRP-1 [10]": {"target": "T13, recombinant human NRP-1 (human, UniProt O14786 22-856, limits assumed)", "T13 construct": "also called biotinylated human NRP-1", "T13 sequence (O14786 22-856 V179A limits assumed)": "as the sequence (O14786 22-856 V179A limits assumed) above", "assay": "blocking ELISA: human NRP-1 coated, VEGFA added with IgG1 antibody; competitor VEGFA"}, "recombinant human NRP-1 [11]": {"target": "T13, recombinant human NRP-1", "assay": "blocking ELISA: SEMA3A coated, biotinylated human NRP-1 preincubated with IgG1 antibody; competitor SEMA3A"}}, "note": "Changes are numbered by the printed parent chain.", "data": [{"binder": "B1", "values": [{"measurement": "binding result", "setting": "[1]", "result": "binds"}, {"measurement": "binding result", "setting": "[2]", "result": "binds"}, {"measurement": "binding result", "setting": "[3]", "result": "binds"}, {"measurement": "binding result", "setting": "[4]", "result": "binds"}, {"measurement": "binding result", "setting": "[5]", "result": "binds"}, {"measurement": "binding result", "setting": "[6]", "result": "binds"}, {"measurement": "binding result", "setting": "[7]", "result": "binds"}, {"measurement": "binding result", "setting": "[8]", "result": "no binding"}, {"measurement": "binding result", "setting": "[9]", "result": "no binding"}, {"measurement": "Kd", "setting": "Human NRP-1 His", "result": 0.481, "unit": "nM"}, {"measurement": "Kd", "setting": "Cyno NRP-1 His", "result": 0.469, "unit": "nM"}, {"measurement": "Kd", "setting": "Mouse NRP-1 His", "result": 0.44, "unit": "nM"}, {"measurement": "IC50", "setting": "recombinant human NRP-1 [10]", "result": 6, "unit": "nM"}, {"measurement": "IC50", "setting": "recombinant human NRP-1 [11]", "result": 0.8, "unit": "nM"}]}]}
